The target in data set [1] is T1, phiC31 integrase G182A/F183A (Streptomyces phage phiC31, UniProt Q38194 1-613, G182A;F183A).
T1 sequence: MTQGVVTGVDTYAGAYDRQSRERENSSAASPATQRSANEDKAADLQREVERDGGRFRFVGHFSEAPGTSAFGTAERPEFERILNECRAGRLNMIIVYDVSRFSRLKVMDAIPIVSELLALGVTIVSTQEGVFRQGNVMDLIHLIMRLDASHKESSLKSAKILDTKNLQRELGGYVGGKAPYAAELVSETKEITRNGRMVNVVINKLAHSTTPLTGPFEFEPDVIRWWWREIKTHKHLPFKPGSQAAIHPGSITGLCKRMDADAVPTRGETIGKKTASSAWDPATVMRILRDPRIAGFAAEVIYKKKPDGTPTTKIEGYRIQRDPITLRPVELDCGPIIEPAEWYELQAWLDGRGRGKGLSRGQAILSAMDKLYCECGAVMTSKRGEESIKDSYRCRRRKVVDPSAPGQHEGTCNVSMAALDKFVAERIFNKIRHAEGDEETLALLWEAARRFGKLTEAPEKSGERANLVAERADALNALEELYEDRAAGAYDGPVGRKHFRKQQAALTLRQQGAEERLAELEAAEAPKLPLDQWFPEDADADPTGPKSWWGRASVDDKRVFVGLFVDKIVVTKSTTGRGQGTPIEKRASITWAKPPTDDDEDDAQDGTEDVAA
Description: EMSA; 50 ng/ul Poly (competitor (so in the source)), 0.05% NP-40, 50 mM KCl, 5 mM MgCl2, 10 mM EDTA, 20 ul, 0.4 ng (16 fmol) probe; 30 min at room temperature (Methods) or 30 C; pH not stated; synapsis 2 h at 30 C. To be noted: protein: recombinant; tags: C-terminal His; chain copies: 2; label: biotin, double-strand end-labeled; blunt. Background: In EMSA bound probe runs differently from free probe, usually more slowly.

In the next data set the target is T2, phiC31 integrase C374A (Streptomyces phage phiC31, UniProt Q38194 1-613, C374A).
T2 sequence: T1 sequence with A182G, A183F, C374A
Described as above. To be noted: protein: recombinant; tags: C-terminal His; chain copies: 2; label: biotin, double-strand end-labeled; blunt.

Another data set concerns the target T3, phiC31 integrase WT (Streptomyces phage phiC31, UniProt Q38194 1-613).
T3 sequence: T1 sequence with A182G, A183F
Description: EMSA; complexes I, II, III; 50 ng/ul Poly (competitor (so in the source)), 0.05% NP-40, 50 mM KCl, 5 mM MgCl2, 10 mM EDTA, 20 ul, 0.4 ng (16 fmol) probe; 30 min at room temperature (Methods) or 30 C; pH not stated; synapsis 2 h at 30 C. The settings on record: protein: recombinant; tags: C-terminal His (pET22b); chain copies: 2; label: biotin, double-strand end-labeled; blunt.

The record followed here is publication PMC2810336, “Mutational Analysis of Highly Conserved Residues in the Phage PhiC31 Integrase Reveals Key Amino Acids Necessary for the DNA Recombination”.

Numbering of substitutions follows the chain as printed.

B1: attP 50 bp (dsDNA)
DNA 1: GTAGTGCCCCAACTGGGGTAACCTTTGAGTTCTCTCAGTTGGGGGCGTAG
DNA 2: CTACGCCCCCAACTGAGAGAACTCAAAGGTTACCCCAGTTGGGGCACTAC
B1: the binding result is listed as “no binding” in data set [1], “no binding” in the data set with phiC31 integrase C374A and “binds” with phiC31 integrase WT.
